From US10227388B2, “Peptides and combination of peptides for use in immunotherapy against non-small cell lung cancer and other cancers” (immatics biotechnologies GmbH, priority 2015, dated 2019)

Target: HLA-A*02:01 (Homo sapiens, UniProt P04439, D140Y/D185E/D98H/E176V/E277Q/G131W/G231S/I119V/I121R/I166T/I218V/L300P/L318F/N151K/N90K/P208A/P217A/Q86G/Q94H/R138H/R169H/T345S)
Test: MHC binding assay (UV-ligand exchange, ELISA, peptide exchange yield)
Conditions: binding of HLA-class I restricted peptides to HLA-A*02:01
Method in brief: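 Exchange yield was quantified as stabilized β2m-containing complex: monomers diluted 100-fold bound to streptavidin-coated wells, probed with HRP-conjugated anti-β2m, read at 450 nm after TMB. Complexes had been generated by UV cleavage of a photolabile ligand and replacement with the candidate peptide.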

| Substance | Peptide exchange (MHC class I binding score, peptide exchange yield) |
| --- | --- |
| 343 (SLLEVNEESTV; listed as Homo sapiens) [compound 343] | ″+++″ (≥50% = +++) |
| 344 (YLQDQHLLLTV; listed as Homo sapiens) [compound 344] | ″+++″ (≥50% = +++) |
| 345 (VIWKALIHL; listed as Homo sapiens) [compound 345] | ″+++″ (≥50% = +++) |
| 346 (LLDSKVPSV; listed as Homo sapiens) [compound 346] | ″+++″ (≥50% = +++) |
| 347 (SLFKHDPAAWEA; listed as Homo sapiens) [compound 347] | ″++++″ (≥75% = ++++) |
| 348 (ILLDVKTRL; listed as Homo sapiens) [compound 348] | ″++++″ (≥75% = ++++) |
| 349 (SLTEYLQNV; listed as Homo sapiens) [compound 349] | ″++++″ (≥75% = ++++) |
| 350 (ALLDVTHSELTV; listed as Homo sapiens) [compound 350] | ″+++″ (≥50% = +++) |
| 351 (SLIPNLRNV; listed as Homo sapiens) [compound 351] | ″+++″ (≥50% = +++) |
| 352 (SLLELLHIYV; listed as Homo sapiens) [compound 352] | ″+++″ (≥50% = +++) |
| 353 (YLFEMDSSL; listed as Homo sapiens) [compound 353] | ″++″ (≥20% = ++) |
| 354 (LILEGVDTV; listed as Homo sapiens) [compound 354] | ″++″ (≥20% = ++) |
| 355 (SIQQSIERLLV; listed as Homo sapiens) [compound 355] | ″++″ (≥20% = ++) |
| 356 (KLLGKLPEL; listed as Homo sapiens) [compound 356] | ″+++″ (≥50% = +++) |
| 357 (SMHDLVLQV; listed as Homo sapiens) [compound 357] | ″+++″ (≥50% = +++) |
| 358 (ALDEYTSEL; listed as Homo sapiens) [compound 358] | ″++++″ (≥75% = ++++) |
| 359 (YLLPESVDL; listed as Homo sapiens) [compound 359] | ″+++″ (≥50% = +++) |
| 361 (ALYELEGTTV; listed as Homo sapiens) [compound 361] | ″+++″ (≥50% = +++) |
| 362 (TLYGLSVLL; listed as Homo sapiens) [compound 362] | ″+++″ (≥50% = +++) |
| 363 (KVLDVSDLESV; listed as Homo sapiens) [compound 363] | ″++″ (≥20% = ++) |
| 364 (LLQNEQFEL; listed as Homo sapiens) [compound 364] | ″+++″ (≥50% = +++) |

| Substance | Peptide exchange (MHC class I binding score, peptide exchange yield) |
| --- | --- |
| 365 (YVIDQGETDVYV; listed as Homo sapiens) [compound 365] | ″+++″ (≥50% = +++) |
| 366 (RLLDMGETDLML; listed as Homo sapiens) [compound 366] | ″+++″ (≥50% = +++) |
| 367 (SLQNHNHQL; listed as Homo sapiens) [compound 367] | ″+++″ (≥50% = +++) |
| 369 (GLFPEHLIDV; listed as Homo sapiens) [compound 369] | ″+++″ (≥50% = +++) |
| 370 (SLLQDLVSV; listed as Homo sapiens) [compound 370] | ″+++″ (≥50% = +++) |
| 371 (FLQAHLHTA; listed as Homo sapiens) [compound 371] | ″++++″ (≥75% = ++++) |
| 372 (TMLLNIPLV; listed as Homo sapiens) [compound 372] | ″++″ (≥20% = ++) |
| 373 (SLLEDKGLAEV; listed as Homo sapiens) [compound 373] | ″++″ (≥20% = ++) |
| 374 (FLLQQHLISA; listed as Homo sapiens) [compound 374] | ″++″ (≥20% = ++) |
| 375 (SLTETIEGV; listed as Homo sapiens) [compound 375] | ″++″ (≥20% = ++) |
| 376 (AMFESSQNVLL; listed as Homo sapiens) [compound 376] | ″++″ (≥20% = ++) |
| 377 (FLLDSSASV; listed as Homo sapiens) [compound 377] | ″++″ (≥20% = ++) |
| 378 (ALGYFVPYV; listed as Homo sapiens) [compound 378] | ″+++″ (≥50% = +++) |
| 379 (IMEGTLTRV; listed as Homo sapiens) [compound 379] | ″++″ (≥20% = ++) |
| 380 (TLIEDEIATI; listed as Homo sapiens) [compound 380] | ″++″ (≥20% = ++) |
| 381 (FIDEAYVEV; listed as Homo sapiens) [compound 381] | ″++″ (≥20% = ++) |
| 382 (ALQNYIKEA; listed as Homo sapiens) [compound 382] | ″++″ (≥20% = ++) |
| 383 (ALLELENSVTL; listed as Homo sapiens) [compound 383] | ″+++″ (≥50% = +++) |
| 385 (SLLEQGLVEA; listed as Homo sapiens) [compound 385] | ″++″ (≥20% = ++) |
| 386 (ILFRYPLTI; listed as Homo sapiens) [compound 386] | ″+++″ (≥50% = +++) |

Continued, values first:

| Peptide exchange (MHC class I binding score, peptide exchange yield) | Substance |
| --- | --- |
| ″++++″ (≥75% = ++++) | 387 (ALFQATAEV; listed as Homo sapiens) [compound 387] |
| ″+++″ (≥50% = +++) | 388 (SLTIDGIRYV; listed as Homo sapiens) [compound 388] |
| ″++″ (≥20% = ++) | 389 (LLADVTHLL; listed as Homo sapiens) [compound 389] |
| ″+++″ (≥50% = +++) | 390 (ALFMKQIYL; listed as Homo sapiens) [compound 390] |
| ″+++″ (≥50% = +++) | 391 (YVYPQRLNFV; listed as Homo sapiens) [compound 391] |
| ″++″ (≥20% = ++) | 392 (ALLHPQGFEV; listed as Homo sapiens) [compound 392] |
| ″++″ (≥20% = ++) | 393 (GLLDTQTSQVLTA; listed as Homo sapiens) [compound 393] |
| ″+++″ (≥50% = +++) | 394 (LLAVIGGLVYL; listed as Homo sapiens) [compound 394] |
| ″++++″ (≥75% = ++++) | 395 (ALALGGIAVV; listed as Homo sapiens) [compound 395] |
| ″+++″ (≥50% = +++) | 396 (ALLPDLPAL; listed as Homo sapiens) [compound 396] |
| ″+++″ (≥50% = +++) | 397 (YLFGERLLEC; listed as Homo sapiens) [compound 397] |
| ″++″ (≥20% = ++) | 398 (KLLEEDGTIITL; listed as Homo sapiens) [compound 398] |
| ″+++″ (≥50% = +++) | 399 (YLFEPLYHV; listed as Homo sapiens) [compound 399] |
| ″++″ (≥20% = ++) | 400 (SLLTEQDLWTV; listed as Homo sapiens) [compound 400] |
| ″+++″ (≥50% = +++) | 401 (ILLDDTGLAYI; listed as Homo sapiens) [compound 401] |
| ″++″ (≥20% = ++) | 402 (VLFSGALLGL; listed as Homo sapiens) [compound 402] |
| ″++″ (≥20% = ++) | 403 (KLYDRILRV; listed as Homo sapiens) [compound 403] |
| ″++″ (≥20% = ++) | 405 (ALYDVFLEV; listed as Homo sapiens) [compound 405] |
| ″+++″ (≥50% = +++) | 407 (YLMDLINFL; listed as Homo sapiens) [compound 407] |
| ″++″ (≥20% = ++) | 408 (VLDDSIYLV; listed as Homo sapiens) [compound 408] |
| ″++″ (≥20% = ++) | 409 (LLDAMNYHL; listed as Homo sapiens) [compound 409] |
| ″++″ (≥20% = ++) | 412 (YLDDLNEGVYI; listed as Homo sapiens) [compound 412] |
| ″+++″ (≥50% = +++) | 426 (RLADKSVLV; listed as Homo sapiens) [compound 426] |
| ″+++″ (≥50% = +++) | 427 (ALLPLSPYL; listed as Homo sapiens) [compound 427] |
| ″++″ (≥20% = ++) | 428 (KLGHTDILVGV; listed as Homo sapiens) [compound 428] |
